According to article PMC3564526 (Molecular Biology of the Cell, 2013):

Target: T1, PH^Ste5 domain (Ste5 aa 373–537), bacterially expressed and purified (S. cerevisiae, UniProt P32917 373-537)
T1 sequence (looked up): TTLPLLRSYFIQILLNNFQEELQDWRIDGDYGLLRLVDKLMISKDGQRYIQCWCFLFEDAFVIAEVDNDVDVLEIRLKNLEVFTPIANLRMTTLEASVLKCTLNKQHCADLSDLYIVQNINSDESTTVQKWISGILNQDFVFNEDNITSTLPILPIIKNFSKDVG
Assay: SPR

B1: His-tagged RBL^Ste11 domain (Ste11 aa 116–236) (domain or fragment, S. cerevisiae, UniProt P23561 116-236, looked up)
chain: PEKHCVIFILNDGSAKKVNVNGCFNADSIKKRLIRRLPHELLATNSNGEVTKMVQDYDVFVLDYTKNVLHLLYDVELVTICHANDRVEKNRLIFVSKDQTPSDKAISTSKKLYLRTLSALS
- Kd: ~200 nM
